The text below walks through data of patent US20240116985A1, “STAPLED PEPTIDES AND METHODS THEREOF” (priority 2020, published 2024).

Starred links: 1 amine or outer side, 2 acyl side, 3 side chain; linkers in the order of their positions; H or OH if unused. Positions of bridges follow the written chain, without caps; N, C: chain ends. Non-standard residues stand in square brackets, D forms with d. Primed or numbered codes have the meaning given here. PyrS2″ = (S)-3-amino-1-((pent-4-en-1-yloxy)carbonyl)pyrrolidine-3-carboxylic acid (stapling residue), C=CCCCOC(=O)N1CC[C@@](N[*:1])(C(=O)[*:2])C1; B5(4) = 2,2-bis(4-pentenyl)glycine = 2-amino-2-(pent-4-en-1-yl)hept-6-enoic acid (stitching residue), C=CCCCC(CCCC=C)(N[*:1])C(=O)[*:2]; PyrS2 = (S)-3-amino-1-((pent-4-en-1-yloxy)carbonyl)pyrrolidine-3-carboxylic acid, C=CCCCOC(=O)N1CC[C@@](N[*:1])(C(=O)[*:2])C1; R6 = (R)-2-amino-2-methyloct-7-enoic acid, C=CCCCC[C@@](C)(N[*:1])C(=O)[*:2]; R4 = (R)-2-amino-2-methylhex-5-enoic acid, C=CCC[C@@](C)(N[*:1])C(=O)[*:2]; dαMeGly(allyl) = C=CC[C@@](C)(N)C(=O)O; Bta = N[C@@H](Cc1csc2ccccc12)C(=O)O; Lys(iPr) = CC(C)NCCCC[C@H](N)C(=O)O; αAllylPro = C=CC[C@@]1(C(=O)O)CCCN1; tBuAla = CC(C)(C)C[C@H](N)C(=O)O; 3Thi = N[C@@H](Cc1ccsc1)C(=O)O

To fix the notation:
B1: I-2002 (peptide)
peptide: Ac-[αAllylPro]DA[B5(4)]NTAAFN[PyrS2″][3Thi][Bta]Q-NH2
modifications: staple 1-4, 4-11; not fully specified; printed as Ac-PL3-Asp-Ala-B5-Asn-Thr-Ala-Ala-Phe-Asn-PyrS2-3Thi-BztA-Gln-NH2
B2: I-2003 (peptide)
peptide: Ac-[αAllylPro]DA[B5(4)]NTAAFN[PyrS2″][3Thi][Bta]Q-NH2
modifications: staple 1-4, 4-11; not fully specified; printed as Ac-PL3-Asp-Ala-B5-Asn-Thr-Ala-Ala-Phe-Asn-PyrS2-3Thi-BztA-Gln-NH2
B3: I-1993 (peptide)
peptide: Ac-PD[tBuAla][dαMeGly(allyl)]DDAAFL[PyrS2][3Thi][Bta]Q-NH2
modifications: staple 4-11; not fully specified; printed as Ac-Pro-Asp-Npg-R3-Asp-Asp-Ala-Ala-Phe-Leu-PyrS2-3Thi-BztA-Gln-NH2; also: staple -CH=CH- reduced to -CH2-CH2-
B4: I-1992 (peptide)
peptide: Ac-PD[tBuAla][R4]DDAAFL[PyrS2][3Thi][Bta]Q-NH2
modifications: staple 4-11; not fully specified; printed as Ac-Pro-Asp-Npg-R4-Asp-Asp-Ala-Ala-Phe-Leu-PyrS2-3Thi-BztA-Gln-NH2; also: staple -CH=CH- reduced to -CH2-CH2-
B5: I-1991 (peptide)
peptide: Ac-PD[tBuAla][R6]DDAAFL[PyrS2][3Thi][Bta]Q-NH2
modifications: staple 4-11; not fully specified; printed as Ac-Pro-Asp-Npg-R6-Asp-Asp-Ala-Ala-Phe-Leu-PyrS2-3Thi-BztA-Gln-NH2; also: staple -CH=CH- reduced to -CH2-CH2-
B6: I-2004 (peptide)
peptide: Ac-[αAllylPro]D[tBuAla][B5(4)]NT[Lys(iPr)]AFN[PyrS2″][3Thi][Bta]Q-NH2
modifications: staple 1-4, 4-11; not fully specified; printed as Ac-PL3-Asp-Npg-B5-Asn-Thr-iPrLys-Ala-Phe-Asn-PyrS2-3Thi-BztA-Gln-NH2
B7: I-2005 (peptide)
peptide: Ac-[αAllylPro]D[tBuAla][B5(4)]NT[Lys(iPr)]AFN[PyrS2″][3Thi][Bta]Q-NH2
modifications: staple 1-4, 4-11; not fully specified; printed as Ac-PL3-Asp-Npg-B5-Asn-Thr-iPrLys-Ala-Phe-Asn-PyrS2-3Thi-BztA-Gln-NH2

In the assay the target is full-length beta-Catenin (Uniprot ID P35222) (Homo sapiens (Human)) (UniProt P35222). Briefly: fluorescence polarization competition; 10 nM full-length beta-catenin + 10 nM 5FAM-TCF4(10-53) probe.
full-length beta-Catenin (Uniprot ID P35222) (Homo sapiens (Human)), sequence (P35222 whole entry): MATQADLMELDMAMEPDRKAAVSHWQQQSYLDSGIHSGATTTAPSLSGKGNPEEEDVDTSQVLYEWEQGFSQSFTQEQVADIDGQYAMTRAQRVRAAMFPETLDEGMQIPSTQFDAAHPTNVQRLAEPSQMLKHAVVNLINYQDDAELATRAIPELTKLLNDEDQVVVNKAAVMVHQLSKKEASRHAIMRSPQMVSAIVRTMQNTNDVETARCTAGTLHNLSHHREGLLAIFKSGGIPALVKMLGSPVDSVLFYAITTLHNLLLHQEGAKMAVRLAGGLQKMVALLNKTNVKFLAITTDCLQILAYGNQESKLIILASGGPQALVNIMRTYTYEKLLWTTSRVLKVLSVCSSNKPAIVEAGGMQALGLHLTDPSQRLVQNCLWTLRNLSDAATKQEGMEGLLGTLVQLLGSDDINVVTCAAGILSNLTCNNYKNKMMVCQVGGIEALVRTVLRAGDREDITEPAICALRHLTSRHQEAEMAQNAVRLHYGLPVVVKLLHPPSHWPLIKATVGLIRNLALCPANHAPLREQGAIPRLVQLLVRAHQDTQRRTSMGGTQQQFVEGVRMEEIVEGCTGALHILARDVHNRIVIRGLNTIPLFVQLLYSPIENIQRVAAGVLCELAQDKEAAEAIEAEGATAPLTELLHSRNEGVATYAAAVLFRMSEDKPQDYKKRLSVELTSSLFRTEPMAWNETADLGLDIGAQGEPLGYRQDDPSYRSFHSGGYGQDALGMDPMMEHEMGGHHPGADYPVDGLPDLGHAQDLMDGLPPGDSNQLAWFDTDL
What is called IC50 is the concentration needed to halve the response being measured. For Ac-PD[tBuAla][R6]DDAAFL[PyrS2][3Thi][Bta]Q-NH2 (staple 4-11) [I-1988], the IC50 was 312 nM.
For the molecule Ac-PD[tBuAla][dαMeGly(allyl)]DDAAFL[PyrS2][3Thi][Bta]Q-NH2 (staple 4-11) [I-1990], the IC50 was found to be 585 nM.
Then B1, with 612 nM; and B2, with 1020 nM; and B3, with 728 nM.
In the case of B4, the concentration for half-maximal inhibition (IC50) came to 536 nM.
Ac-[αAllylPro]D[tBuAla][B5(4)]NTA[Lys(iPr)]FN[PyrS2″][3Thi][Bta]Q-NH2 (staple 1-4, 4-11) [I-2006]: the IC50 came to 285 nM.
Take B5: the IC50 came out at 397 nM.
On to Ac-PD[tBuAla][R4]DDAAFL[PyrS2][3Thi][Bta]Q-NH2 (staple 4-11) [I-1989], for which the IC50 is 186 nM.
The value for B6 was 227 nM.
With B7, the IC50 was determined as 357 nM.
